Experimental findings from FireProtDB (doi:10.1016/j.jmb.2003.11.050) are described below.

B1: Cold shock protein CspB, P41016 (parent)
chain: MQRGKVKWFNNEKGYGFIEVEGGSDVFVHFTAIQGEGFKTLEEGQEVSFEIVQGNRGPQAANVVKL

Several values for one entry are separate records, joined by “and”; a condition that tells them apart may be missing. Identical values can stand only once.

In this data set the parent is B1. Particulars: Bacillus caldolyticus; pH 7; 25 °C; GdnHCl; Fluorescence; sodium cacodylate 100 mM; reversible: yes; structure 1C9O; whole UniProt chain shown.

Consider E50W L66C, for which the “ddG of mutation (higher = less stable)” value is 1.7 kcal/mol and 4.4 kcal/mol; the denaturant m value is 1.97 kcal/mol/M and 1.54 kcal/mol/M; the “denaturant midpoint (higher = more stable)” value (shortened to “denaturant midpoint”) is 1.64 M and 1.68 M; the unfolding free energy is 3.23 kcal/mol and 2.58 kcal/mol.

In the case of F38W, the “ddG of mutation (higher = less stable)” value is -0.7 kcal/mol, the denaturant m value amounted to 1.75 kcal/mol/M, the “denaturant midpoint” value was determined as 2.18 M and the unfolding free energy was determined as 3.8 kcal/mol.

With F38W L66C, the denaturant m value was 1.97 kcal/mol/M and 1.9 kcal/mol/M and 1.54 kcal/mol/M; the “denaturant midpoint” value is 2.14 M and 2.11 M and 1.83 M; the unfolding free energy was 4.21 kcal/mol and 4.02 kcal/mol and 2.82 kcal/mol.

In the case of E50W S24C, the “ddG of mutation (higher = less stable)” value is 0.8 kcal/mol and 0.3 kcal/mol; the denaturant m value was 1.64 kcal/mol/M and 1.43 kcal/mol/M; the “denaturant midpoint” value was 2.09 M and 2.05 M; the unfolding free energy was 3.44 kcal/mol and 2.92 kcal/mol.

For E50W, the “ddG of mutation (higher = less stable)” value is -0.3 kcal/mol, the denaturant m value came out at 1.69 kcal/mol/M, the “denaturant midpoint” value was 2.18 M and the unfolding free energy was 3.7 kcal/mol.
